Here are results for three molecules from US20250002605A1 (WUHAN YZY BIOPHARMA, published 2025).

In assay [1] the target is T1, human EpCAM antigen (SB, Cat: 10694-H08H) (human, UniProt P16422 24-265).
T1 construct: Bought antigen immobilised on a CM5 chip
T1 sequence (looked up): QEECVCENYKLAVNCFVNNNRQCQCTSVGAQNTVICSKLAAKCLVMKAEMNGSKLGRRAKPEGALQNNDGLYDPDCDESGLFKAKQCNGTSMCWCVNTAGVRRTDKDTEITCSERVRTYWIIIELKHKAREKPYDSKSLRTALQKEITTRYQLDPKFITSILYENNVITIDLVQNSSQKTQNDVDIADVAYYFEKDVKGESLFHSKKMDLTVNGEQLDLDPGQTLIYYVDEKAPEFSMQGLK
Briefly: SPR (Biacore T200), antigen amine-coupled on CM5, antibody as analyte, 1:1 fit; D0 sample. (In general: Surface plasmon resonance follows binding to a sensor surface in real time, without labels.)

Assay [2] has as its target T2, human EpCAM on the cell surface (human, UniProt P16422 24-314).
T2 sequence (looked up): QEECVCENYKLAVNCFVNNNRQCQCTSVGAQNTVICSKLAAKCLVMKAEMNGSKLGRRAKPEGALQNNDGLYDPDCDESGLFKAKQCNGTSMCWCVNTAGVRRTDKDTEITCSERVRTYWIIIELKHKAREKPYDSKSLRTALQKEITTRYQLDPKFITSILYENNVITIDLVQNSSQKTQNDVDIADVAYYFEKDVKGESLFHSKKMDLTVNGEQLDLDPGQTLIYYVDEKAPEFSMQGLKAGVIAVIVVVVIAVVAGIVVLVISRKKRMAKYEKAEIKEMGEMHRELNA
Briefly: cell-based or functional assay.

In assay [3] the target is CD3 on Jurkat cells. Briefly: cell-based or functional assay.
In assay [4] the target is T1, human EpCAM antigen (SB, Cat: …). Briefly: SPR (Biacore T200), antigen amine-coupled on CM5, antibody as analyte, 1:1 fit; D14 sample after 14 days at 40 C.
Assay [5] deals with T2, human EpCAM on the cell surface. Briefly: flow cytometry (FACS) on HCT116 cells, PE anti-human IgG Fc detection.
Assay [6] has the same target. Nature of the assay: cell-based or functional assay. The source holds these as a separate data set.
The target in assay [7] is CD3 on Jurkat cells. Nature of the assay: cell-based or functional assay. This is another data set of the same source.
The target in assay [8] is T3, human CD3 antigen (SB, Cat: CT038-H2508H) (human, UniProt P07766 23-126; P04234 22-105). Nature of the assay: SPR (Biacore T200), antigen amine-coupled on CM5, antibody as analyte, 1:1 fit; D0 sample.
The target in assay [9] is T3, human CD3 antigen (SB, Cat: …). Nature of the assay: SPR (Biacore T200), antigen amine-coupled on CM5, antibody as analyte, 1:1 fit; D14 sample after 14 days at 40 C.
For assay [10] the target is unchanged. Nature of the assay: SPR (Biacore T200), CD3 antigen amine-coupled on CM5, antibody as analyte, 1:1 fit.

B1: M701A (bispecific antibody, human IgG1, kappa)
light: ELVMTQSPSSLTVTAGEKVTMSCKSSQSLLNSGNQKNYLTWYQQKPGQPPKLLIYWASTRESGVPDRFTGSGSGTDFTLTISSVQAEDLAVYYCQNDYSYPLTFGAGTKLEIKRTVAAPSVFIFPPSDEQLKSGTASVVCLLNNFYPREAKVQWKVDNALQSGNSQESVTEQDSKDSTYSLSSTLTLSKADYEKHKVYACEVTHQGLSSPVTKSFNRGEC
heavy: EVQLLEQSGAELVRPGTSVKISCKASGYAFTNYWLGWVKQRPGHGLEWIGDIFPGSGNIHYNEKFKGKATLTADKSSSTAYMQLSSLTFEDSAVYFCARLRNWDEPMDYWGQGTTVTVSSASTKGPSVFPLAPSSKSTSGGTAALGCLVKDYFPEPVTVSWNSGALTSGVHTFPAVLQSSGLYSLSSVVTVPSSSLGTQTYICNVNHKPSNTKVDKKVEPKSCDKTHTCPPCPAPELLGGPSVFLFPPKPKDTLMISRTPEVTCVVVDVSHEDPEVKFNWYVDGVEVHNAKTKPREEQYNSTYRVVSVLTVLHQDWLNGKEYKCKVSNKALPAPIEKTISKAKGQPREPQVYTLPPSRDELTKNQVSLWCLVKGFYPSDIAVEWESNGQPENNYDTTPPVLDSDGSFFLYSDLTVDKSRWQQGNVFSCSVMHEALHNHYTQKSLSLSPGK
chain: not shown
notes: YBODY format; also called bispecific antibody M701A
The term Kd denotes a measure of binding affinity in units of concentration. Lower therefore signals tighter binding. The term EC50 denotes the midpoint of the concentration-response curve. Read a low EC50 as higher potency in that assay. Consider B1, for which the figures for the dissociation constant (Kd) in assay [1] and in assay [4] were 17.1 nM and 17.3 nM, respectively. The “cell bridging of HCT116 and Jurkat cells (CFSE/PKH26 double-positive cells, flow cytometry)” value (in [2]; with CD3 on Jurkat cells [3]) was ~40 % of the total PKH26-positive cells throughout. This molecule also registered an EC50 in assay [5] of 3.56 nM. For the same molecule, the “EC50 (read off the curve), cell bridging of HCT116 and Jurkat [panel C]” value (in assay [6]; in the assay with CD3 on Jurkat cells [7]) was about 10 ng/mL throughout.

B2: M701K (bispecific antibody, human IgG1, kappa)
light: ELVMTQSPSSLTVTAGEKVTMSCKSSQSLLNSGNQKNYLTWYQQKPGQPPKLLIYWASTRESGVPDRFTGSGSGTDFTLTISSVQAEDLAVYYCQNDYSYPLTFGAGTKLEIKRTVAAPSVFIFPPSDEQLKSGTASVVCLLNNFYPREAKVQWKVDNALQSGNSQESVTEQDSKDSTYSLSSTLTLSKADYEKHKVYACEVTHQGLSSPVTKSFNRGEC
heavy: EVQLLEQSGAELVRPGTSVKISCKASGYAFTNYWLGWVKQRPGHGLEWIGDIFPGSGNIHYNEKFKGKATLTADKSSSTAYMQLSSLTFEDSAVYFCARLRNWDEPMDYWGQGTTVTVSSASTKGPSVFPLAPSSKSTSGGTAALGCLVKDYFPEPVTVSWNSGALTSGVHTFPAVLQSSGLYSLSSVVTVPSSSLGTQTYICNVNHKPSNTKVDKKVEPKSCDKTHTCPPCPAPPVAGPSVFLFPPKPKDTLMISRTPEVTCVVVDVSHEAPEVQFNWYVDGVEVHNAKTKPREEQFNSTFRVVSVLTVVHQDWLNGKEYKCKVSNKGLPAPIEKTISKTKGQPREPQVYTLPPCRDELTKNQVSLWCLVKGFYPSDIAVEWESNGQPENNYKTTPPVLDSDGSFFLYSKLTVDKSRWQQGNVFSCSVMHEALHNHYTQKSLSLSPGK
chain: QVQLVESGGGVVQPGRSLRLSCAASGFTFSTYAMNWVRQAPGKGLEWVARIRSKYNNYATYYADSVKDRFTISRDDSKNTLYLQMNSLRAEDTAVYYCARHGNFGNSYVSWFAYWGQGTLVTVSSGGGGSGGGGSGGGGSQTVVTQEPSLTVSPGGTVTLTCRSSTGAVTTSNYANWVQQKPGQAPRGLIGGTNKRAPGVPARFSGSLLGGKAALTLSGVQPEDEAEYYCALWYSNLWVFGGGTKVEIKGAAAEPKSCDKTHTCPPCPAPPVAGPSVFLFPPKPKDTLMISRTPEVTCVVVDVSHEAPEVQFNWYVDGVEVHNAKTKPREEQFNSTFRVVSVLTVVHQDWLNGKEYKCKVSNKGLPAPIEKTISKTKGQPREPQVCTLPPSRDELTKNQVSLSCAVKGFYPSDIAVEWESNGQPENNYKTTPPVLDSDGSFFLVSKLTVDKSRWQQGNVFSCSVMHEALHNHYTQKSLSLSPGK
notes: YBODY format; also called bispecific antibody M701K
As to B2, the Kd amounted to 21.1 nM in assay [1]; 28.8 nM in assay [8]; 22.6 nM in assay [4]; 30.6 nM in assay [9]; 28.8 nM in assay [10]. In assay [5], this molecule returned an EC50 of 5.65 nM.

B3: M701B (bispecific antibody, human IgG1, kappa)
light: ELVMTQSPSSLTVTAGEKVTMSCKSSQSLLNSGNQKNYLTWYQQKPGQPPKLLIYWASTRESGVPDRFTGSGSGTDFTLTISSVQAEDLAVYYCQNDYSYPLTFGAGTKLEIKRTVAAPSVFIFPPSDEQLKSGTASVVCLLNNFYPREAKVQWKVDNALQSGNSQESVTEQDSKDSTYSLSSTLTLSKADYEKHKVYACEVTHQGLSSPVTKSFNRGEC
heavy: EVQLLEQSGAELVRPGTSVKISCKASGYAFTNYWLGWVKQRPGHGLEWIGDIFPGSGNIHYNEKFKGKATLTADKSSSTAYMQLSSLTFEDSAVYFCARLRNWDEPMDYWGQGTTVTVSSASTKGPSVFPLAPSSKSTSGGTAALGCLVKDYFPEPVTVSWNSGALTSGVHTFPAVLQSSGLYSLSSVVTVPSSSLGTQTYICNVNHKPSNTKVDKKVEPKSCDKTHTCPPCPAPELLGGPSVFLFPPKPKDTLMISRTPEVTCVVVDVSHEDPEVKFNWYVDGVEVHNAKTKPREEQYNSTYRVVSVLTVLHQDWLNGKEYKCKVSNKALPAPIEKTISKAKGQPREPQVYTLPPSRDELTKNQVSLWCLVKGFYPSDIAVEWESNGQPENNYDTTPPVLDSDGSFFLYSDLTVDKSRWQQGNVFSCSVMHEALHNHYTQKSLSLSPGK
chain: QVQLVESGGGVVQPGRSLRLSCAASGFTFSTYAMNWVRQAPGKGLEWVARIRSKYNNYATYYADSVKDRFTISRDDSKNTLYLQMNSLRAEDTAVYYCARHGNFGNSYVSWFAYWGQGTLVTVSSGGGGSGGGGSGGGGSQTVVTQEPSLTVSPGGTVTLTCRSSTGAVTTSNYANWVQQKPGQAPRGLIGGTNKRAPGVPARFSGSLLGGKAALTLSGVQPEDEAEYYCALWYSNLWVFGGGTKVEIKGAAAEPKSCDKTHTCPPCPAPELLGGPSVFLFPPKPKDTLMISRTPEVTCVVVDVSHEDPEVKFNWYVDGVEVHNAKTKPREEQYNSTYRVVSVLTVLHQDWLNGKEYKCKVSNKALPAPIEKTISKAKGQPREPQVYTLPPSRDELTKNQVSLTCRVKGFYPSDIAVEWESNGQPENNYKTTPPVLKSDGSFFLASKLTVDKSRWQQGNVFSCSVMHEALHNHYTQKSLSLSPGK
notes: YBODY format; also called bispecific antibody M701B
Take B3: the dissociation constant Kd in assay [1] is 20 nM; in [8] it was 28.3 nM; in assay [4], 22.6 nM; in [9], 31.5 nM; in assay [10] it was 28.3 nM. Besides, the “cell bridging of HCT116 and Jurkat cells (CFSE/PKH26 double-positive cells, flow cytometry)” value (in assay [2]; with CD3 on Jurkat cells [3]) was ~40 % of the total PKH26-positive cells in each case. Also, the EC50 in assay [5] came to 3.72 nM. For the same molecule, the “EC50 (read off the curve), cell bridging of HCT116 and Jurkat [panel C]” value (in [6]; in the assay with CD3 on Jurkat cells [7]) was about 10 ng/mL throughout.
